Measured values from patent publication US20260144882A1 (BIO THERA SOLUTIONS, published 2026).

Target: T1, human Nectin-4 extracellular antigen hNectin-4-His (human, UniProt Q96NY8 32-349)
T1 construct: C-terminal 8xHis tag included
T1 sequence: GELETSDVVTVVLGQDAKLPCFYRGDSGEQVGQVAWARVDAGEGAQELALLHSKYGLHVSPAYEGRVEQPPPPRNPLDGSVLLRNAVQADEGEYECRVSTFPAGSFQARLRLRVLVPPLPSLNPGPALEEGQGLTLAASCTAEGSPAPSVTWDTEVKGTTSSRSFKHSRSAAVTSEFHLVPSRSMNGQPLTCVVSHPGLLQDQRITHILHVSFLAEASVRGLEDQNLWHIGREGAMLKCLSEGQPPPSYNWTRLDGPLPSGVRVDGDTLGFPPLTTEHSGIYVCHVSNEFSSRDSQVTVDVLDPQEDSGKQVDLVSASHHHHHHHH
Experiment: ELISA, phage scFv supernatant 1:50
Experimental: The supernatants were diluted 50-fold, and the binding OD values of the diluted supernatants to hNectin-4-His were measured by ELISA. The samples were serially 3-fold diluted, and the EC₅₀ titer for the binding of the supernatants to the antigen was measured by ELISA. […] The light chain variable region sequence is set forth in SEQ ID NO: 25. The OD value is the measurement of ELISA, and the EC₅₀ value denotes the EC₅₀ value of the binding activity titer of the supernatant to the antigen.

Binder	OD value
1F3-2H6 scFv (scFv, V domains shown, phage clone supernatant) VH: EVQLVESGGGLVQPGGSLRLSCAASGYTFSSYGMSWVRQAPGKGLEWVSRIKSDGGDTHYADSVKGRFTISRDNSKNTLYLQMNSLRAEDTAVYYCARAELLAFDVYTASDYWGQGTLVTVSS VL: DIQMTQSPSSLSASVGDRVTITCRASQGISSYLAWYQQKPGKAPKLLIYAASSLQSGVPSRFSGSGSGTDFTLTISSLQPEDFATYYCQQHYTTPPTFGQGTKVEIKR	1.31 OD
1F3-2H12 scFv (scFv, V domains shown, phage clone supernatant) VH: EVQLVESGGGLVQPGGSLRLSCAASGDSFDSSGMSWVRQAPGKGLEWVSGIKWITGESYYADSVKGRFTISRDNSKNTLYLQMNSLRAEDTAVYYCARAELLAFDVYTASDYWGQGTLVTVSS VL: DIQMTQSPSSLSASVGDRVTITCRASQGISSYLAWYQQKPGKAPKLLIYAASSLQSGVPSRFSGSGSGTDFTLTISSLQPEDFATYYCQQHYTTPPTFGQGTKVEIKR	1.59 OD
1G8-2D4 scFv (scFv, V domains shown, phage clone supernatant) VH: EVQLVESGGGLVQPGGSLRLSCAASGYNFGGYAMSWVRQAPGKGLEWVSRISGTSGNNDYADSVKGRFTISRDNSKNTLYLQMNSLRAEDTAVYYCARQTEDRSYGYDLDYWGQGTLVTVSS VL: DIQMTQSPSSLSASVGDRVTITCRASQGISSYLAWYQQKPGKAPKLLIYAASSLQSGVPSRFSGSGSGTDFTLTISSLQPEDFATYYCQQHYTTPPTFGQGTKVEIKR	1.58 OD
1G8-1A3 scFv (scFv, V domains shown, phage clone supernatant) VH: EVQLVESGGGLVQPGGSLRLSCAASGYNFGSYAMSWVRQAPGKGLEWVSRIYPGSWSPDYADSVKGRFTISRDNSKNTLYLQMNSLRAEDTAVYYCARQTEDRSYGYDLDYWGQGTLVTVSS VL: DIQMTQSPSSLSASVGDRVTITCRASQGISSYLAWYQQKPGKAPKLLIYAASSLQSGVPSRFSGSGSGTDFTLTISSLQPEDFATYYCQQHYTTPPTFGQGTKVEIKR	1.62 OD
1G8-1A7 scFv (scFv, V domains shown, phage clone supernatant) VH: EVQLVESGGGLVQPGGSLRLSCAASGYTFDSYAMSWVRQAPGKGLEWVSRIKTTDDGKSYADSVKGRFTISRDNSKNTLYLQMNSLRAEDTAVYYCARQTEDRSYGYDLDYWGQGTLVTVSS VL: DIQMTQSPSSLSASVGDRVTITCRASQGISSYLAWYQQKPGKAPKLLIYAASSLQSGVPSRFSGSGSGTDFTLTISSLQPEDFATYYCQQHYTTPPTFGQGTKVEIKR	1.57 OD
1G8-1A12 scFv (scFv, V domains shown, phage clone supernatant) VH: EVQLVESGGGLVQPGGSLRLSCAASGGTFDTNAMSWVRQAPGKGLEWVSAISTGGDNKRYADSVKGRFTISRDNSKNTLYLQMNSLRAEDTAVYYCARQTEDRSYGYDLDYWGQGTLVTVSS VL: DIQMTQSPSSLSASVGDRVTITCRASQGISSYLAWYQQKPGKAPKLLIYAASSLQSGVPSRFSGSGSGTDFTLTISSLQPEDFATYYCQQHYTTPPTFGQGTKVEIKR	1.61 OD
1G8-1B7 scFv (scFv, V domains shown, phage clone supernatant) VH: EVQLVESGGGLVQPGGSLRLSCAASGYSFSNYAMSWVRQAPGKGLEWVSRISAWGSTNNYADSVKGRFTISRDNSKNTLYLQMNSLRAEDTAVYYCARQTEDRSYGYDLDYWGQGTLVTVSS VL: DIQMTQSPSSLSASVGDRVTITCRASQGISSYLAWYQQKPGKAPKLLIYAASSLQSGVPSRFSGSGSGTDFTLTISSLQPEDFATYYCQQHYTTPPTFGQGTKVEIKR	1.56 OD
1G8-1B11 scFv (scFv, V domains shown, phage clone supernatant) VH: EVQLVESGGGLVQPGGSLRLSCAASGYNFSNYAMSWVRQAPGKGLEWVSAIDASGGDTRYADSVKGRFTISRDNSKNTLYLQMNSLRAEDTAVYYCARQTEDRSYGYDLDYWGQGTLVTVSS VL: DIQMTQSPSSLSASVGDRVTITCRASQGISSYLAWYQQKPGKAPKLLIYAASSLQSGVPSRFSGSGSGTDFTLTISSLQPEDFATYYCQQHYTTPPTFGQGTKVEIKR	1.58 OD
1G8-1C1 scFv (scFv, V domains shown, phage clone supernatant) VH: EVQLVESGGGLVQPGGSLRLSCAASGYIFSNYAMSWVRQAPGKGLEWVSRISTGFAGPDYADSVKGRFTISRDNSKNTLYLQMNSLRAEDTAVYYCARQTEDRSYGYDLDYWGQGTLVTVSS VL: DIQMTQSPSSLSASVGDRVTITCRASQGISSYLAWYQQKPGKAPKLLIYAASSLQSGVPSRFSGSGSGTDFTLTISSLQPEDFATYYCQQHYTTPPTFGQGTKVEIKR	1.5 OD
1G8-1C8 scFv (scFv, V domains shown, phage clone supernatant) VH: EVQLVESGGGLVQPGGSLRLSCAASGFSFGSSAMSWVRQAPGKGLEWVSAISGSSDSPRYADSVKGRFTISRDNSKNTLYLQMNSLRAEDTAVYYCARQTEDRSYGYDLDYWGQGTLVTVSS VL: DIQMTQSPSSLSASVGDRVTITCRASQGISSYLAWYQQKPGKAPKLLIYAASSLQSGVPSRFSGSGSGTDFTLTISSLQPEDFATYYCQQHYTTPPTFGQGTKVEIKR	1.59 OD
1G8-1C10 scFv (scFv, V domains shown, phage clone supernatant) VH: EVQLVESGGGLVQPGGSLRLSCAASGFNFSDYSMSWVRQAPGKGLEWVSRIKASSGGSDYADSVKGRFTISRDNSKNTLYLQMNSLRAEDTAVYYCARQTEDRSYGYDLDYWGQGTLVTVSS VL: DIQMTQSPSSLSASVGDRVTITCRASQGISSYLAWYQQKPGKAPKLLIYAASSLQSGVPSRFSGSGSGTDFTLTISSLQPEDFATYYCQQHYTTPPTFGQGTKVEIKR	1.61 OD
1G8-1D7 scFv (scFv, V domains shown, phage clone supernatant) VH: EVQLVESGGGLVQPGGSLRLSCAASGGSFSNYAMSWVRQAPGKGLEWVSWIDTTSAYASYADSVKGRFTISRDNSKNTLYLQMNSLRAEDTAVYYCARQTEDRSYGYDLDYWGQGTLVTVSS VL: DIQMTQSPSSLSASVGDRVTITCRASQGISSYLAWYQQKPGKAPKLLIYAASSLQSGVPSRFSGSGSGTDFTLTISSLQPEDFATYYCQQHYTTPPTFGQGTKVEIKR	1.49 OD
1G8-1D11 scFv (scFv, V domains shown, phage clone supernatant) VH: EVQLVESGGGLVQPGGSLRLSCAASGDIFTGYAMSWVRQAPGKGLEWVSRIDGTGDSKFYADSVKGRFTISRDNSKNTLYLQMNSLRAEDTAVYYCARQTEDRSYGYDLDYWGQGTLVTVSS VL: DIQMTQSPSSLSASVGDRVTITCRASQGISSYLAWYQQKPGKAPKLLIYAASSLQSGVPSRFSGSGSGTDFTLTISSLQPEDFATYYCQQHYTTPPTFGQGTKVEIKR	1.59 OD
1G8-1E6 scFv (scFv, V domains shown, phage clone supernatant) VH: EVQLVESGGGLVQPGGSLRLSCAASGYIFTDYSMSWVRQAPGKGLEWVSRIYTDGWEKDYADSVKGRFTISRDNSKNTLYLQMNSLRAEDTAVYYCARQTEDRSYGYDLDYWGQGTLVTVSS VL: DIQMTQSPSSLSASVGDRVTITCRASQGISSYLAWYQQKPGKAPKLLIYAASSLQSGVPSRFSGSGSGTDFTLTISSLQPEDFATYYCQQHYTTPPTFGQGTKVEIKR	1.48 OD
1G8-1E8 scFv (scFv, V domains shown, phage clone supernatant) VH: EVQLVESGGGLVQPGGSLRLSCAASGFTFDGYAMSWVRQAPGKGLEWVSRISSYSWNPDYADSVKGRFTISRDNSKNTLYLQMNSLRAEDTAVYYCARQTEDRSYGYDLDYWGQGTLVTVSS VL: DIQMTQSPSSLSASVGDRVTITCRASQGISSYLAWYQQKPGKAPKLLIYAASSLQSGVPSRFSGSGSGTDFTLTISSLQPEDFATYYCQQHYTTPPTFGQGTKVEIKR	1.55 OD
1G8-1E10 scFv (scFv, V domains shown, phage clone supernatant) VH: EVQLVESGGGLVQPGGSLRLSCAASGDSFSTYAMSWVRQAPGKGLEWVSRISGSGDGKDYADSVKGRFTISRDNSKNTLYLQMNSLRAEDTAVYYCARQTEDRSYGYDLDYWGQGTLVTVSS VL: DIQMTQSPSSLSASVGDRVTITCRASQGISSYLAWYQQKPGKAPKLLIYAASSLQSGVPSRFSGSGSGTDFTLTISSLQPEDFATYYCQQHYTTPPTFGQGTKVEIKR	1.6 OD
1G8-1E12 scFv (scFv, V domains shown, phage clone supernatant) VH: EVQLVESGGGLVQPGGSLRLSCAASGFNFTSYAMSWVRQAPGKGLEWVSRISAHKWDASYADSVKGRFTISRDNSKNTLYLQMNSLRAEDTAVYYCARQTEDRSYGYDLDYWGQGTLVTVSS VL: DIQMTQSPSSLSASVGDRVTITCRASQGISSYLAWYQQKPGKAPKLLIYAASSLQSGVPSRFSGSGSGTDFTLTISSLQPEDFATYYCQQHYTTPPTFGQGTKVEIKR	1.61 OD
1G8-1F7 scFv (scFv, V domains shown, phage clone supernatant) VH: EVQLVESGGGLVQPGGSLRLSCAASGYSFYGYAMSWVRQAPGKGLEWVSAIDAIGGNKRYADSVKGRFTISRDNSKNTLYLQMNSLRAEDTAVYYCARQTEDRSYGYDLDYWGQGTLVTVSS VL: DIQMTQSPSSLSASVGDRVTITCRASQGISSYLAWYQQKPGKAPKLLIYAASSLQSGVPSRFSGSGSGTDFTLTISSLQPEDFATYYCQQHYTTPPTFGQGTKVEIKR	1.58 OD
1G8-1F11 scFv (scFv, V domains shown, phage clone supernatant) VH: EVQLVESGGGLVQPGGSLRLSCAASGDTFSSYAMSWVRQAPGKGLEWVSRISQTGGTTDYADSVKGRFTISRDNSKNTLYLQMNSLRAEDTAVYYCARQTEDRSYGYDLDYWGQGTLVTVSS VL: DIQMTQSPSSLSASVGDRVTITCRASQGISSYLAWYQQKPGKAPKLLIYAASSLQSGVPSRFSGSGSGTDFTLTISSLQPEDFATYYCQQHYTTPPTFGQGTKVEIKR	1.6 OD
1G8-1G3 scFv (scFv, V domains shown, phage clone supernatant) VH: EVQLVESGGGLVQPGGSLRLSCAASGFNFGTYAMSWVRQAPGKGLEWVSRISGISAGTNYADSVKGRFTISRDNSKNTLYLQMNSLRAEDTAVYYCARQTEDRSYGYDLDYWGQGTLVTVSS VL: DIQMTQSPSSLSASVGDRVTITCRASQGISSYLAWYQQKPGKAPKLLIYAASSLQSGVPSRFSGSGSGTDFTLTISSLQPEDFATYYCQQHYTTPPTFGQGTKVEIKR	1.58 OD
